Laboratory results as given in patent US20190248902A1 (published 2019).

T1: recombinant, soluble human ASGR-1 (human, UniProt P07306 62-291)
T1 construct: biotinylated in the binning assay; also called soluble huASGR-1; Soluble ASGR-1 (Amgen)
T1 sequence: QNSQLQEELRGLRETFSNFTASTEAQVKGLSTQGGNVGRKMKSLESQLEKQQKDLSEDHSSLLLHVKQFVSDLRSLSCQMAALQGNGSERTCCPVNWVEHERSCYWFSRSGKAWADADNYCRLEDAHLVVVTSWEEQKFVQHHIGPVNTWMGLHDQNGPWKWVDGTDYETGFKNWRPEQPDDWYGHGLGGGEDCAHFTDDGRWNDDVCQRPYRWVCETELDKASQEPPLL


How the values were obtained:
[1] = target: T1, recombinant, soluble human ASGR-1; assay: Octet BLI dissociation, pH 5.6 plus calcium
How it was run: (§1)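 Antibodies were captured on anti-human Fc biosensors, and soluble ASGR-1 (6 ug/ml) was associated for 2 min in Tris buffer containing 1 mM CaCl2 at pH 7.4, followed by 10 min dissociation under each test condition. The signal at the end of association was set as 100%. Percent ASGR-1 still bound after 1 min of dissociation was compared with the pH 7.4 plus calcium control, and >10% extra dissociation was scored as sensitive.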

[2] = target: T1, recombinant, soluble human ASGR-1; assay: Octet BLI dissociation, pH 5.6 minus calcium
How it was run: as §1

[3] = target: T1, recombinant, soluble human ASGR-1; assay: Octet BLI dissociation, pH 7.4 minus calcium
How it was run: as §1

| Binder | % Change Compared to pH 7.4 + Calcium [1] | % Change Compared to pH 7.4 + Calcium [2] | % Change Compared to pH 7.4 + Calcium [3] |
| --- | --- | --- | --- |
| 191G12 (antibody, V domains shown, hybridoma mAb) VH: QVQLVESGGGVVQPGRSLRLSCAASGFTFSSYGMHWVRQAPGKGLEWVAVIWYDGSNKNYADSVKGRFTISRDNSKNTLYLQMNSLRAEDTAVYYCARDQGVGYDGLDVWGQGTTVTVSS VL: DIQMTQSPSSLSASVGDRVTITCRTSQGIGNYLAWFQQKPGKAPKSLLYKASSLQSGVPSKFSGSGSGTDFTLTISSLQPEDFATYYCQQYITYPLTFGGGSKVEIK | -5% | -6% | -2% |
| 191A10 (antibody, V domains shown, hybridoma mAb) VH: QVQLVESGGGVVQPGRSLRLSCAASGFTFSSYGMHWVRQAPGKGLEWVAVIWYDGSNKNYADSVKGRFTISRDNSKNTLYLQMNSLRAEDTAMYYCARDQGVGYDGLDVWGQGTSVTVSS VL: DIQMTQSPSSLSASVGDRVTITCRASQGIGKYLAWFQQKPGKAPKSLIYAASSLQSGVPSKFSGSGYGTDFTLTISSLQPENFAIYYCQQYSTYPLTFGGGTKVEIK | -5% | -5% | 0% |
| 191G1 (antibody, V domains shown, hybridoma mAb) VH: QVQLVESGGGVVQPGRSLRLSCAASGFTFSSYGMHWVRQAPGKGLEWVAVIWYDGSNEHYADSVKGRFTISRDNSKNTLYLQMNSLRAEDTAVYYCARDRGVGYYGLDVWGQGTTVTVSS VL: DIQMTQSPSSLSASVGDRVTITCRASQGISNYLAWFQQKPGKAPKSLIYAASSLQSGVPSKFSGSGSGTDFTLTISSLQPEDFATYYCQHYLTYPLTFGGGTKVEIK | -15% | -11% | -10% |

The next lines start with the values.

| % Change Compared to pH 7.4 + Calcium [1] | % Change Compared to pH 7.4 + Calcium [2] | % Change Compared to pH 7.4 + Calcium [3] | Binder |
| --- | --- | --- | --- |
| -8% | -5% | -2% | 190G11 (antibody, V domains shown, hybridoma mAb) VH: QVQLVESGGGVVQPGRSLRLSCAASGFTFSIYGMHWVRQAPGKGLEWVAVIWYDGSNKNYADSVKGRFTISRDNSKNTLYLQMNSLRAEDTAVYYCARDQGVGYDGLDVWGQGTTVTVSS VL: DIQMTQSPSSLSASVGDRVTITCRTSQGIGNYLAWFQQKPGKAPKSLLYKASSLQSGVPSKFSGSGSGTDFTLTISSLQPEDFATYYCQQYMTYPLTFGGGTKVEIK |
| -5% | -5% | 0% | 191G10 (antibody, V domains shown, hybridoma mAb) VH: QVQLVESGGGVVQPGRSLRLSCAASGFTFSSYGMHWVRQAPGKGLEWVAVIWYDGSNKNYADSVKGRFTISRDNSKNTLYLQMNSLRAEDTAVYYCARDQGVGYDGLDVWGQGTTVTVSS VL: DIQMTQSPSSLSASVGDRVTITCRTSQGIGKYLAWFQQKPGKAPKSLLYKVSSLQSGVPSKFSGSGSGTDFTLTISSLQPEDFATYYCQQYMTYPLTFGGGTKVEIK |
| -14% | -14% | -9% | 192C8 (antibody, V domains shown, hybridoma mAb) VH: QVQLVESGGGVVQPGRSLRLSCAASGFTFSSYGMHWVRQAPGKGLEWVAVIWYDGSNEHYADSVKGRFMISRDNSKNTLYLQMNSLRAEDTAVYYCARDRGVGYYGMDVWGQGTTVTVSS VL: DIQMTQSPSSLSASVGDRVTITCRASQGISNYLAWFQQKPGKAPKSLIYAASSLQSGVPSKFSGSGSGTDFTLTISSLQPEDFATYYCQHYLTYPLTFGGGTKVEIK |
| -9% | -9% | -1% | 191E10 (antibody, V domains shown, hybridoma mAb) VH: QVQLVESGGGVVQPGRSLRLSCAASGFTFSSYGMHWVRQAPGKGLEWVAVIWYDGSNKNYADSVKGRFTISRDNSKNTLYLQMNSLRAEDTAMYYCARDQGVGYDGLDVWGQGTSVTVSS VL: DIQMTQSPSSLSASVGDRVTITCRASQGIGKYLAWFQQKPGKAPKSLIYAASSLQSGVPSKFSGSGSGTDFTLTISSLQPENFATYYCQQYSTYPLTFGGGTKVEIK |
